Kd data for one molecule are collected here from patent US20180149657A1 (IMMUNOMEDICS, published 2018).

This assay addresses T1, human Trop-2 (human, UniProt P09758 27-323).
T1 construct: whole, on cells; also called EGP-1; epithelial glycoprotein-1
T1 sequence (looked up): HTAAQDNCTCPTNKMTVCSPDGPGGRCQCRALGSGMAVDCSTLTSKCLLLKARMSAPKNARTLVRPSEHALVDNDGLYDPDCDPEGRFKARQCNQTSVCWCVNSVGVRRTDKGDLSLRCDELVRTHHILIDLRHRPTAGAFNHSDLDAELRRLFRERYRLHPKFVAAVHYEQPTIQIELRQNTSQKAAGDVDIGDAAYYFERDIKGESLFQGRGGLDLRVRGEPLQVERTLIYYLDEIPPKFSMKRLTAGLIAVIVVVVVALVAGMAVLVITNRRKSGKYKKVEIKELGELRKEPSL
Nature of the assay: cell binding assay on NCI-N87 cells, anti-mouse-HRP secondary, luminescence.

B1: murine RS7 (antibody, V domains shown)
VH: VKLQESGPELKKPGETVKISCKASGYTFTNYGMNWVKQAPGKGLKWMGWINTYTGEPTYTDDFKGRFAFSLETSATTAYLQINNLKSEDMATYFCARGGFGSSYWYFDVWGQGTTVTVSS
VL: DIQLTQSHKFMSTSVGDRVSITCKASQDVSIAVAWYQQKPGQSPKLLIYSASYRYTGVPDRFTGSGSGTDFTFTISSVQAEDLAVYYCQQHYITPLTFGAGTKLELK
B1 displayed a dissociation constant (Kd) of 570 pM.
